Assay results as given in article PMC10046596, “Biophysical and Biochemical Characterization of the Binding of the MarR-like Transcriptional Regulator Saro_0803 to the nov1 Promotor and Its Inhibition by Resveratrol” (Biomolecules, 2023).

Legend:
Saro_0803 [1] = target: T1, Saro_0803 (Novosphingobium aromaticivorans, UniProt Q2GA75); experiment: ITC (also SPR, Kd […]; EMSA shows inhibition of nov1p^[…]bp binding)
T1 construct: His-tagged Saro_0803 (pET-30a(+)), full-length; homogeneous dimer in solution
T1 sequence (Q2GA75 1-157): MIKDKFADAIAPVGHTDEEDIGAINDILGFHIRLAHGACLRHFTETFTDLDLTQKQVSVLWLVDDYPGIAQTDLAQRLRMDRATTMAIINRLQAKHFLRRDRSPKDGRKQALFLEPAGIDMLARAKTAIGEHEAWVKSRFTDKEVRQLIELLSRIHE

Saro_0803 [2] = target: T2, Saro_0803 (Novosphingobium aromaticivorans DSM …, UniProt Q2GA75 1-157); experiment: EMSA; 10 µM protein; ITC: 50 mM Tris-HCl pH 8.0, 200 mM NaCl, 5% DMSO, 25 °C, 20 µM protein, 200 µM DNA; EMSA: 5.0 µM DNA (annealed in 50 mM Tris-HCl pH 8.0, 200 mM NaCl), 37 °C 30; settings: protein: recombinant; tags: His-tag (pET-30a(+), NdeI/XhoI); chain copies: 2
T2 sequence: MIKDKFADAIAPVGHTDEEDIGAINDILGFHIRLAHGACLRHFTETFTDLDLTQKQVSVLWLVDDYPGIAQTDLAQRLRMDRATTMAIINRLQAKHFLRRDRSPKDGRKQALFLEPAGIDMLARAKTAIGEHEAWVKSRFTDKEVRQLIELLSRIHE

Saro_0803 [3] = target: T2, Saro_0803; experiment: EMSA; ITC: 50 mM Tris-HCl pH 8.0, 200 mM NaCl, 5% DMSO, 25 °C, 20 µM protein, 200 µM DNA; EMSA: 5.0 µM DNA (annealed in 50 mM Tris-HCl pH 8.0, 200 mM NaCl), 37 °C 30; settings: protein: recombinant; tags: His-tag (pET-30a(+), NdeI/XhoI); chain copies: 2
Saro_0803 [4] = target: T2, Saro_0803; experiment: ITC; 5% DMSO; ITC: 50 mM Tris-HCl pH 8.0, 200 mM NaCl, 5% DMSO, 25 °C, 20 µM protein, 200 µM DNA; EMSA: 5.0 µM DNA (annealed in 50 mM Tris-HCl pH 8.0, 200 mM NaCl), 37 °C 30; settings: protein: recombinant; tags: His-tag (pET-30a(+), NdeI/XhoI); chain copies: 2
Saro_0803 A87R = target: T3, Saro_0803 A87R (Novosphingobium aromaticivorans DSM …, UniProt Q2GA75 1-157, A87R); experiment: as above; settings: protein: recombinant; tags: His-tag; chain copies: 2
T3 sequence: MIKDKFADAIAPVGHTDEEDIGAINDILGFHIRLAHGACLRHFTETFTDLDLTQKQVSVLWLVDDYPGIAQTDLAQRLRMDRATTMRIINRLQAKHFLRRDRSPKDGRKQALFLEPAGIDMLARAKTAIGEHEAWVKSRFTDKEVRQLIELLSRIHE

Saro_0803 R108A = target: T4, Saro_0803 R108A (Novosphingobium aromaticivorans DSM …, UniProt Q2GA75 1-157, R108A); experiment: as above; settings: protein: recombinant; tags: His-tag; chain copies: 2
T4 sequence: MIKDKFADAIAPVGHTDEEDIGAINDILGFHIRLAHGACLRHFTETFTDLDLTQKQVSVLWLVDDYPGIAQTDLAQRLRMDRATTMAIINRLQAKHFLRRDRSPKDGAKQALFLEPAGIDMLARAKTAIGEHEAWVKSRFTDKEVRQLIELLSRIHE

Saro_0803 K109A = target: T5, Saro_0803 K109A (Novosphingobium aromaticivorans DSM …, UniProt Q2GA75 1-157, K109A); experiment: as above; settings: protein: recombinant; tags: His-tag; chain copies: 2
T5 sequence: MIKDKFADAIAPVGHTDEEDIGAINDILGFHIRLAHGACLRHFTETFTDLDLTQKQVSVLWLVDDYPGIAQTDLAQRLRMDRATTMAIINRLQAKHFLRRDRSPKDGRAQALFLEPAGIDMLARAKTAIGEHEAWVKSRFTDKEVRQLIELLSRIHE

Saro_0803 K109E = target: T6, Saro_0803 K109E (Novosphingobium aromaticivorans DSM …, UniProt Q2GA75 1-157, K109E); experiment: as above; settings: protein: recombinant; tags: His-tag; chain copies: 2
T6 sequence: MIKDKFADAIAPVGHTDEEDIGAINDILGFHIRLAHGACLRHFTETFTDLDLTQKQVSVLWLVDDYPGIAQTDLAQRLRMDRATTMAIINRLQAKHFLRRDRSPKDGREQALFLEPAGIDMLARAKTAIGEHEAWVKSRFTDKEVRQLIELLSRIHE

Saro_0803 R108D = target: T7, Saro_0803 R108D (Novosphingobium aromaticivorans DSM …, UniProt Q2GA75 1-157, R108D); experiment: as above; settings: protein: recombinant; tags: His-tag; chain copies: 2
T7 sequence: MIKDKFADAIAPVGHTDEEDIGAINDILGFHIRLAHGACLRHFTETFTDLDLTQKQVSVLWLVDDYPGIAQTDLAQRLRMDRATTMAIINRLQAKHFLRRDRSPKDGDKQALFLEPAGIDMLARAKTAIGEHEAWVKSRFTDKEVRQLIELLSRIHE

Saro_0803 K55A = target: T8, Saro_0803 K55A (Novosphingobium aromaticivorans DSM …, UniProt Q2GA75 1-157, K55A); experiment: as above; settings: protein: recombinant; tags: His-tag; chain copies: 2
T8 sequence: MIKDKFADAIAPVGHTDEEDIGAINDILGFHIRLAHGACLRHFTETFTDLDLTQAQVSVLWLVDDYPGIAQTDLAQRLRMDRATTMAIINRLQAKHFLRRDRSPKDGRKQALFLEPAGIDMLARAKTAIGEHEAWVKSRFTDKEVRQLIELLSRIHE

Saro_0803 F47A = target: T9, Saro_0803 F47A (Novosphingobium aromaticivorans DSM …, UniProt Q2GA75 1-157, F47A); experiment: ITC, EMSA; micromolar or submicromolar; ITC: 50 mM Tris-HCl pH 8.0, 200 mM NaCl, 5% DMSO, 25 °C, 20 µM protein, 200 µM DNA; EMSA: 5.0 µM DNA (annealed in 50 mM Tris-HCl pH 8.0, 200 mM NaCl), 37 °C 30; settings: protein: recombinant; tags: His-tag; chain copies: 2
T9 sequence: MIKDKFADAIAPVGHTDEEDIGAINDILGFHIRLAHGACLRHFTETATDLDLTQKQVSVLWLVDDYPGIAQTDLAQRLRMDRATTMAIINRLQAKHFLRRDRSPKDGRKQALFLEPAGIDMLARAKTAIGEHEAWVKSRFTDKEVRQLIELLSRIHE

Saro_0803 W61A = target: T10, Saro_0803 W61A (Novosphingobium aromaticivorans DSM …, UniProt Q2GA75 1-157, W61A); experiment: as above; settings: protein: recombinant; tags: His-tag; chain copies: 2
T10 sequence: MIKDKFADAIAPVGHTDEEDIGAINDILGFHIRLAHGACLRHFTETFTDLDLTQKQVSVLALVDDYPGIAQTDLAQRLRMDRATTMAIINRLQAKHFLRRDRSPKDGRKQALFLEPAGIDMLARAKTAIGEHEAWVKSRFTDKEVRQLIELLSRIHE

Saro_0803 F30A = target: T11, Saro_0803 F30A (Novosphingobium aromaticivorans DSM …, UniProt Q2GA75 1-157, F30A); experiment: as above; settings: protein: recombinant; tags: His-tag; chain copies: 2
T11 sequence: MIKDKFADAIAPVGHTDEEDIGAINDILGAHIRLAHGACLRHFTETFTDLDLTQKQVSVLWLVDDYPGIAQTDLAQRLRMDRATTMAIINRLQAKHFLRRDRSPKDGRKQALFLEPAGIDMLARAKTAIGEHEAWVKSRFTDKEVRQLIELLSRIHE

Saro_0803 F43A = target: T12, Saro_0803 F43A (Novosphingobium aromaticivorans DSM …, UniProt Q2GA75 1-157, F43A); experiment: as above; settings: protein: recombinant; tags: His-tag; chain copies: 2
T12 sequence: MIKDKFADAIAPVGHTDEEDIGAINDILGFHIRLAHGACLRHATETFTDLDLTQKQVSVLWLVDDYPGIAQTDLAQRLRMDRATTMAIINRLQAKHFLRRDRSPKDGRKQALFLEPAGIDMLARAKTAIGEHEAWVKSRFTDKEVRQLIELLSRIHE

[5] = target: the molecule itself; experiment: AUC; sedimentation velocity, protein ~1.0 mg/mL, 40,000 rpm for 2 h at 4 °C, c(s) analysis with Sedfit

## Oc1ccc(/C=C/c2cc(O)cc(O)c2)cc1 [resveratrol]
Saro_0803 [1]
  Kd: ~35.7 µM

B1: nov1p58bp with 15 bp 3' deletion (43 bp) (dsDNA)
DNA 1: CCAACGAATGCGCTTGTCTAATTGTTAGCAATACATACAATAT
DNA 2: ATATTGTATGTATTGCTAACAATTAGACAAGCGCATTCGTTGG
Saro_0803 [2]
  binding result: no binding

B2: 18-bp upstream fragment (dsDNA)
DNA 1: CCAACGAATGCGCTTGTC
DNA 2: GACAAGCGCATTCGTTGG
Saro_0803 [3]
  binding result: no binding

B3: nov1p22bp (dsDNA)
DNA 1: TAATTGTTAGCAATACATACAA
DNA 2: TTGTATGTATTGCTAACAATTA
Saro_0803 [4]
  Kd: ~3.57 µM
Saro_0803 A87R
  Kd: ~1.16 µM
Saro_0803 R108A
  binding result: no binding
Saro_0803 K109A
  binding result: no binding
Saro_0803 K109E
  binding result: no binding
Saro_0803 R108D
  binding result: no binding
Saro_0803 K55A
  binding signal: ~3 fold decrease in affinity vs WT
Saro_0803 F47A
  binding result: binds
Saro_0803 W61A
  binding result: binds
Saro_0803 F30A
  binding result: binds
Saro_0803 F43A
  binding result: binds

B4: Saro_0803, MarR-like transcriptional regulator of Novosphingobium aromaticivorans DSM 12444 (natural protein, UniProt Q2GA75 1-157, looked up)
chain: MIKDKFADAIAPVGHTDEEDIGAINDILGFHIRLAHGACLRHFTETFTDLDLTQKQVSVLWLVDDYPGIAQTDLAQRLRMDRATTMAIINRLQAKHFLRRDRSPKDGRKQALFLEPAGIDMLARAKTAIGEHEAWVKSRFTDKEVRQLIELLSRIHE
notes: Transcriptional regulator Saro_0803 (MarR family), encoded by gene saro_0803 of Novosphingobium aromaticivorans DSM 12444; theoretical MW of the tagged protein around 18.75 kDa; called full-length in contrast to the truncation 21-157; Cloned into pET-30a(+) by Nde I/Xho I; No removal of the tag is described; also called polyhistidine-tagged Saro_0803; His-tagged Saro_0803; source: E. coli …
[5]
  stoichiometry N: 2

B5: downstream neighboring fragment (dsDNA)
DNA 1: TATTGCAAGGAGGATGCC
DNA 2: GGCATCCTCCTTGCAATA
Saro_0803 [3]
  binding result: no binding
